Target: TRAPPIII complex, P46944;P38334;Q03337;P36149;Q03784;Q03630;Q99394
Assay: in vivo anchor-away assay (colocalization of Trs85-mNeonGreen with mitochondrially anchored Rab, fluorescence microscopy)
Settings: parent: est. 0.55; read off a plot

| other: Mander's Overlap Coefficient | Substance |
| --- | --- |
| 0.68 | chimeric construct containing the NBD of Rab11/Ypt31 and the HVD of Rab1/Ypt1, mitochondrially anchored D187A; K188A; N190A |
| 0.3 | chimeric construct containing the NBD of Rab11/Ypt31 and the HVD of Rab1/Ypt1, mitochondrially anchored V191A; N192A; L193A |
| 0.21 | chimeric construct containing the NBD of Rab11/Ypt31 and the HVD of Rab1/Ypt1, mitochondrially anchored L198A; T199A; N200A; T201A |
| 0.28 | chimeric construct containing the NBD of Rab11/Ypt31 and the HVD of Rab1/Ypt1, mitochondrially anchored K194A; Q196A; S197A |
| 0.54 | chimeric construct containing the NBD of Rab11/Ypt31 and the HVD of Rab1/Ypt1, mitochondrially anchored T181A; T182A; Q183A |
| 0.58 | chimeric construct containing the NBD of Rab11/Ypt31 and the HVD of Rab1/Ypt1, mitochondrially anchored K184A; K185A; E186A |
